Assay results from IntAct's records for PubMed 20956295.

Target: cav1_human CAV1 (UniProt Q03135)
Sequence of UniProt Q03135 (Q03135 whole entry): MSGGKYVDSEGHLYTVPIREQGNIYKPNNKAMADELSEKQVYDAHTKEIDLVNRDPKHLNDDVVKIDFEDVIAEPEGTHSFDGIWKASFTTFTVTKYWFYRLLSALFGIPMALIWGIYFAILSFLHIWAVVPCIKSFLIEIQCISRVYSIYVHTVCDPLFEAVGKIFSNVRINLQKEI

Microtubule-associated protein 1 light chain 3 beta (Homo sapiens) (from UniProt Q9GZQ8) Y113A
effect of a mutation on the interaction: disrupting interaction
